These results are taken from patent US20200352995A1.

Test [1] has as its target LAG3 (CD223) on BCMA-specific CTL (human) (UniProt P18627). Put plainly: cell-based or functional assay.
Test [2] addresses OX40 (CD134) on BCMA-specific CTL (human) (UniProt P43489). As to the kind of experiment: cell-based or functional assay.

LAG3 (CD223) on BCMA-specific CTL (human), sequence (P18627 23-525): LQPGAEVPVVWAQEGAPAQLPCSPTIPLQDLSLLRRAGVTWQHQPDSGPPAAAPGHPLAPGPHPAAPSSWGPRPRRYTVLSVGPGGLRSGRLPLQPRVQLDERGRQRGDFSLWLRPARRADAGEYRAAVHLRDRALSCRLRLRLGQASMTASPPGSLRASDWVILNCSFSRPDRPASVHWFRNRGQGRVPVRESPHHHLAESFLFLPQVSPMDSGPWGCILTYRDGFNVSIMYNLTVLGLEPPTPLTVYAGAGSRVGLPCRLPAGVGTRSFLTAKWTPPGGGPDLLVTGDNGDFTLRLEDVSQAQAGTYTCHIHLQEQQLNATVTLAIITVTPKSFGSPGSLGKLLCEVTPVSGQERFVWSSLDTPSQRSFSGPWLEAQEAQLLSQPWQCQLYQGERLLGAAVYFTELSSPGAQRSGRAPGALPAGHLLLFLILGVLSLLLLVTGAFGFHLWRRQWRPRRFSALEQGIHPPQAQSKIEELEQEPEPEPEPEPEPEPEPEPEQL
OX40 (CD134) on BCMA-specific CTL (human), sequence (P43489 29-277): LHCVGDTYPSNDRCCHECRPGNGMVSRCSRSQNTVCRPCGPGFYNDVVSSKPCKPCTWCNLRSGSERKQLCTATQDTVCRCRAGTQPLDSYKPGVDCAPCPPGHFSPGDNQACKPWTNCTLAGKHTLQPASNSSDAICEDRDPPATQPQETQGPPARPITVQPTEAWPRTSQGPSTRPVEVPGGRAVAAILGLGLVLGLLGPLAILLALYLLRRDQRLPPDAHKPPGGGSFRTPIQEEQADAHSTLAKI

In test [1], “Clinical grade mAb to LAG3 (Bristol-Myers Squibb) (antibody)” returned a cytotoxic activity (CD107a degranulation) by memory CTL against HLA-A2+ McCAR MM cells of 14.5% and a cytotoxic activity (CD107a degranulation) by memory CTL against HLA-A2+ U266 MM cells of 35.8%.

As for “Clinical grade mAb to OX40 (Bristol-Myers Squibb) (antibody)”, in test [2], the cytotoxic activity (CD107a degranulation) by memory CTL against HLA-A2+ McCAR MM cells stood at 20% and the cytotoxic activity (CD107a degranulation) by memory CTL against HLA-A2+ U266 MM cells amounted to 39.5%.
